Data: patent US7288256B1, “T cell epitopes of the major allergens from dermatophagoides (house dust mite)” (Merck Patent GmbH, priority 1991, dated 2007)
Residues, ends and D or L forms follow the SMILES beside them.

How the values were obtained:
[1] = pH-solubility profile of candidate peptides (HPLC of filtrate); assay type: physicochemical; conditions: at a pH in the pH range of pH 6 to pH 8; 50 mM sodium phosphate; about 22° C., 24 hours
Procedure: Stock solution A: 0.66 g […] of monobasic sodium phosphate monohydrate U.S.P. and 50 mg EDTA disodium dihydrate, U.S.P. were dissolved in 100 mL of WFI. The solution was filtered through a 0.2 micron filter
Stock solution B: 0.71 g […] of dibasic sodium phosphate U.S.P. were disolved in 100 ml WFI. The solution was filtered through a 0.2 micron filter.
Dispersions A and B were sonicated for 2 minutes for good homogeneity. A small volume was pipetted from each dispersion into a labeled eppendoff vial according to the following volume ratio:
The resultant solutions/suspensions were stored in the dark at about 22° C.±2 for 24 hours without agitation. The solutions were filtered and filtrates were analyzed for pH and peptide concentration.

[2] = pH-stability profile of candidate peptides (percent degradant peak area by HPLC); conditions: 3, 2 and 1 mg/ml per peptide; 24 hours at about 5° C. and about 22° C.; common window within pH 6 to pH 8
Procedure: The concentration of filtered peptide solutions was determined by HPLC analysis. In this experiment, the solubility of peptide at each pH is defined as the amount of peptide remaining in solution after filtration through a membrane filter having a 0.2 micrometer pore size. The extent of degradation of peptides was estimated by calculating the percent of total degradant peak area over the total peak area.

[3] = system: PBMC from mite-allergic patient; experiment: Primary PBMC proliferation (3H-thymidine) to Der p I/Der p II proteins and peptides, Example IV; assay type: cell-based, human; conditions: for CPM ± S.D.: 7 days culture; for S.I.: CPM with antigen / CPM medium only
Procedure: Peripheral blood mononuclear cells (PBMC) were purified by Ficoll-Hypaque centrifugation of a peripheral blood specimen from mite-allergic patient and were assayed for proliferation in response to various antigens, i.e., affinity-purified Der p I, affinity purified […], various Der p I and Der p II peptides. For assay, 5×10^4 PBMC were cultured in triplicate microwells for 7 days at 37° C. in the presence of various concentrations of antigen in 200 μl RPMI-1640 containing 5% human AB serum. Each well then received 1 μCi tritiated thymidine for 16 hours. The counts incorporated were collected onto glass fiber filters and processed for liquid scintillation counting. […] The CPM+/− standard deviation are shown. The stimulation index of each response (S.I.) is the ratio of the ^3H-thymidine CPM incorporated by the cells in response to antigen divided by the ^3H-thymidine CPM incorporated by cells in medium only. […] Thus, these peptides contain Der p I or Der p II T cell epitopes recognized by T cells from this particular allergic patient.

human IgE = experiment: Direct binding ELISA of IgE to mite allergen proteins and peptides (Examples XIII, XV)
Procedure: Corning assay plates (#25882-96) were coated with 5 μg/ml of each coating antigen listed in FIGS. 19, 20 and 21 at […] and incubated overnight at 4° C. The coating antigens were removed and the wells are blocked with 0.5% gelatin in PBS, 300 μl/well for 2 hours at room temperature. […] Louis, Mo.) and 100 μl/well a\was added and incubated overnight at 4° C. (plasma dilutions were tested in duplicate). The second antibody (biotinylated goat anti-Human IgE, 1:1000, Kirkegaard & Perry Laboratories Inc, Gaithersburg, Md.), was added at 100 μl/well for one hour at room temperature. This solution was removed and streptavidin-HRPO, 1:10000, (Southern Biotechnology Associates, Inc., Birmingham, Ala.) was then added at 100 μl/well for one hour at room temperature (all wells are washed three times with PBS-Tween between each incubation step). TMB Membrane Peroxidase Substrate system (Kirkegaard & Perry Laboratories) was freshly miced, and added at […]. The color was allowed to develop for 2-5 minutes. The reaction was stopped by the addition of […] of 1M phosphoric acid. Plates were read on a Microplate IL310 Autoreader (Biotech Instruments, Winooski, Vt.) with a 450 nm filter. The absorbance levels of duplicate wells were averaged. The order of coating antigens listed vertically in these figure legends corresponds in […] from left to right to the coating antigens listed for each histogram.

[4] = plasma from 19 mite-allergic patients and a pool of 18 additional patients, Example XV
[5] = pooled human plasma from 20 mite skin test positive patients, coating antigen 5 μg/ml, FIGS. 19-21

**Q.** Which solubility thermodynamic at 24 h [1] does the source give for `CC(C)C[C@H](NC(=O)[C@H](Cc1ccc(O)cc1)NC(=O)[C@H](C)NC(=O)[C@H](CO)NC(=O)[C@H](CCC(=O)O)NC(=O)[C@@H](NC(=O)[C@H](C)NC(=O)[C@H](C)NC(=O)[C@@H](N)C(C)C)[C@@H](C)O)C(=O)N[C@@H](C)C(=O)N[C@@H](Cc1ccc(O)cc1)C(=O)N[C@@H](CCCNC(=N)N)C(=O)N[C@@H](CC(N)=O)C(=O)N[C@H](C(=O)N[C@@H](CO)C(=O)N[C@@H](CC(C)C)C(=O)N[C@@H](CC(=O)O)C(=O)N[C@@H](CC(C)C)C(=O)N[C@@H](CO)C(=O)N[C@@H](CCC(=O)O)C(=O)N[C@@H](CCC(N)=O)C(=O)N[C@@H](CCC(=O)O)C(=O)N[C@@H](CC(C)C)C(=O)N[C@H](C(=O)N[C@@H](CC(=O)O)C(=O)O)C(C)C)[C@@H](C)O` [DF I-22.2] (H-VAATESAYLAYRNTSLDLSEQELVD-OH; N-terminus and C-terminus assumed) here?
**A.** Its solubility thermodynamic at 24 h is greater than 3000 µg/mL.

**Q.** What about the “solution stability in equal concentration combination” value [2] of the same molecule?
**A.** The value was “acceptable solution stability”.

**Q.** Which solubility thermodynamic at 24 h [1] does the source give for `CC(C)C[C@H](NC(=O)[C@H](CCC(=O)O)NC(=O)[C@H](CCCCN)NC(=O)[C@@H](N)CC(=O)O)C(=O)N[C@@H](CCC(=O)O)C(=O)N[C@@H](C)C(=O)N[C@H](C(=O)N[C@@H](Cc1ccccc1)C(=O)N[C@@H](CCC(=O)O)C(=O)N[C@@H](C)C(=O)N[C@@H](CC(N)=O)C(=O)N[C@@H](CCC(N)=O)C(=O)N[C@@H](CC(N)=O)C(=O)N[C@H](C(=O)N[C@@H](CCCCN)C(=O)N[C@H](C(=O)N[C@@H](C)C(=O)N[C@@H](CCCCN)C(=O)N[C@@H](C)C(=O)N[C@@H](CCC(=O)O)C(=O)O)[C@@H](C)O)[C@@H](C)O)C(C)C` [DP II-22.14] (H-DKELEAVFEANQNTKTAKAE-OH; N-terminus and C-terminus assumed) here?
**A.** Its solubility thermodynamic at 24 h is greater than 3000 µg/mL.

**Q.** What about the “solution stability in equal concentration combination” value [2] of the same molecule?
**A.** Its value is “acceptable solution stability”.

B1: Der p II: Group II protein allergen of Dermatophagoides pteronyssinus, immunoaffinity purified native form (protein)
chain: DQVDVKDCANHEIKKVLVPGCHGSEPCIIHRGKPFQLEAVFEANQNTKTAKIEIKASIDGLEVDVPGIDPNACHYMKCPLVKGQQYDIKYTWNVPKIAPKSENVVVTVKVMGDDGVLACAIATHAKIRD
**Q.** For B1, which “CPM ± S.D.” value ([3]; antigen 10 μg/ml) is on record?
**A.** The value was 1113 ± 35 CPM.

**Q.** And the S.I. ([3]; antigen 10 μg/ml)?
**A.** The S.I. was 1.0.

**Q.** And the “CPM ± S.D.” value ([3]; antigen 30 μg/ml)?
**A.** Its value is 2104 ± 43 CPM.

**Q.** What about the S.I. ([3]; antigen 30 μg/ml) of the same molecule?
**A.** Its S.I. is 2.0.

**Q.** And the “CPM ± S.D.” value ([3]; antigen 100 μg/ml)?
**A.** The value was 1057 ± 27 CPM.

**Q.** And the S.I. ([3]; antigen 100 μg/ml)?
**A.** The S.I. was 1.0.

**Q.** And the “IgE binding in direct ELISA” value (human IgE; [4])?
**A.** The value was “All samples did contain IgE”.

**Q.** And the “IgE binding in direct ELISA” value (human IgE; [5])?
**A.** Its value is “good binding”.

B2: rDer p II: recombinant Der p II expressed in E. coli as His6 fusion (protein)
chain: MGHHHHHHEFDQVDVKDCANHEIKKVLVPGCHGSEPCIIHRGKPFQLEAVFEANQNTKTAKIEIKASIDGLEVDVPGIDPNACHYMKCPLVKGQQYDIKYTWNVPKIAPKSENVVVTVKVMGDDGVLACAIATHAKIRD
**Q.** With B2 as the molecule, how does the “IgE binding in direct ELISA” value (human IgE; [5]) read?
**A.** Its value is “good binding”.

B3: recombinant Der f I: recombinant Der f I expressed in E. coli as His6 fusion (protein)
chain: MGHHHHHHEFTSACRINSVNVPSELDLRSLRTVTPIRMQGGCGSCWAFSGVAATESAYLAYRNTSLDLSEQELVDCASQHGCHGDTIPRGIEYIQQNGVVEERSYPYVAREQRCRRPNSQHYGISNYCQIYPPDVKQIREALTQTHTAIAVIIGIKDLRAFQHYDGRTIIQHDNGYQPNYHAVNIVGYGSTQGDDYWIVRNSWDTTWGDSGYGYFQAGNNLMMIEQYPYVVIM
**Q.** For B3, which “IgE binding in direct ELISA” value (human IgE; [5]) is on record?
**A.** Its value is “no detectable binding”.

B4: biochemically purified Der f I: Group I protein allergen of Dermatophagoides farinae, immunoaffinity purified native form (protein)
chain: TSACRINSVNVPSELDLRSLRTVTPIRMQGGCGSCWAFSGVAATESAYLAYRNTSLDLSEQELVDCASQHGCHGDTIPRGIEYIQQNGVVEERSYPYVAREQRCRRPNSQHYGISNYCQIYPPDVKQIREALTQTHTAIAVIIGIKDLRAFQHYDGRTIIQHDNGYQPNYHAVNIVGYGSTQGDDYWIVRNSWDTTWGDSGYGYFQAGNNLMMIEQYPYVVIM
**Q.** For B4, which “IgE binding in direct ELISA” value (human IgE; [5]) is on record?
**A.** Its value is “binding”.

B5: recombinant Der f II: recombinant Der f II expressed in E. coli as His6 fusion (protein)
chain: MGHHHHHHEFDQVDVKDCANNEIKKVMVDGCHGSDPCIIHRGKPFTLEALFDANQNTKTAKTEIKASLDGLEIDVPGIDTNACHFMKCPLVKGQQYDAKYTWNVPKIAPKSENVVVTVKLVGDNGVLACAIATHAKIRD
**Q.** For B5, which “IgE binding in direct ELISA” value (human IgE; [5]) is on record?
**A.** Its value is “binding”.

B6: biochemically purified Der f II: Group II protein allergen of Dermatophagoides farinae, immunoaffinity purified native form (protein)
chain: DQVDVKDCANNEIKKVMVDGCHGSDPCIIHRGKPFTLEALFDANQNTKTAKTEIKASLDGLEIDVPGIDTNACHFMKCPLVKGQQYDAKYTWNVPKIAPKSENVVVTVKLVGDNGVLACAIATHAKIRD
**Q.** For B6, which “IgE binding in direct ELISA” value (human IgE; [5]) is on record?
**A.** The value was “binding”.

B7: Der p I: Group I protein allergen of Dermatophagoides pteronyssinus, immunoaffinity purified native form (protein)
chain: TNACSINGNAPAEIDLRQMRTVTPIRMQGGCGSCWAFSGVAATESAYLAHRNQSLDLAEQELVDCASQHGCHGDTIPRGIEYIQHNGVVQESYYRYVAREQSCRRPNAQRFGISNYCQIYPPNANKIREALAQTHSAIAVIIGIKDLDAFRHYDGRTIIQRDNGYQPNYHAVNIVGYSNAQGVDYWIVRNSWDTNWGDNGYGYFAANIDLMMIEEYPYVVIL
**Q.** Which “CPM ± S.D.” value ([3]; antigen 10 μg/ml) does the source give for B7 here?
**A.** Its value is 920 ± 15 CPM.

**Q.** What about the S.I. ([3]; antigen 10 μg/ml) of the same molecule?
**A.** Its S.I. is 0.9.

**Q.** And the “CPM ± S.D.” value ([3]; antigen 30 μg/ml)?
**A.** Its value is 2122 ± 93 CPM.

**Q.** What about the S.I. ([3]; antigen 30 μg/ml) of the same molecule?
**A.** The S.I. was 2.0.

**Q.** What about the “CPM ± S.D.” value ([3]; antigen 100 μg/ml) of the same molecule?
**A.** The value was 1492 ± 13 CPM.

**Q.** What about the S.I. ([3]; antigen 100 μg/ml) of the same molecule?
**A.** The S.I. was 1.4.

**Q.** What about the “IgE binding in direct ELISA” value (human IgE; [4]) of the same molecule?
**A.** Its value is “All samples did contain IgE”.
